Source: PMC6555819, “Comprehensive study of nuclear receptor DNA binding provides a revised framework for understanding receptor specificity”

Biological target: RARb:RXRa (Homo sapiens, UniProt P10826;P19793 full;full)
Assay: no ligand; PBM; 270 nM : 90 nM RXRa; PBS pH 7.4, 2% milk, 0.02% Triton X-100, 1 mM DTT, BSA, 0.4 mg/ml salmon testes DNA
Details: tags: His kept;His cleaved; copies: 1;1; label: surface-attached array probe
How it was run: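 On custom Agilent 4×180K arrays, double-stranded probes with 34-nt variable regions carried direct-repeat seeds, single-nucleotide variants, half-site ablations or random human genomic background. Ligand-free nuclear receptor dimers were applied for 1 h, and binding was read with antibodies against each partner (one per run). Binding z-scores come from regression-normalized fluorescence, with the random background probes as reference.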

RARb:RXRa, sequence (P10826 whole entry, chain 1 of 2): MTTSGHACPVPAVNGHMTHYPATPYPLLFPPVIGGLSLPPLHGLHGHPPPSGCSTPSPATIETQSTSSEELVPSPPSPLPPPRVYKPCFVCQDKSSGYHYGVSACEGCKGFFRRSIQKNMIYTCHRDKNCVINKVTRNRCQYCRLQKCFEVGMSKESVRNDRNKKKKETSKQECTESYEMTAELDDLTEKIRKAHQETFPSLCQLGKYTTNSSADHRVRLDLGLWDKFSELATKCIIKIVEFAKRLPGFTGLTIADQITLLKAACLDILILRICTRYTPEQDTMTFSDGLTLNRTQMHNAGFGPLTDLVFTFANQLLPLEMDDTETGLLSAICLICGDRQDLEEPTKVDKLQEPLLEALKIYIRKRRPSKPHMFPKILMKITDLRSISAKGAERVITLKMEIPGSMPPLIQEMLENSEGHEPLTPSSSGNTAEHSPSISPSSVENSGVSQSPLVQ
RARb:RXRa, sequence (P19793 whole entry, chain 2 of 2): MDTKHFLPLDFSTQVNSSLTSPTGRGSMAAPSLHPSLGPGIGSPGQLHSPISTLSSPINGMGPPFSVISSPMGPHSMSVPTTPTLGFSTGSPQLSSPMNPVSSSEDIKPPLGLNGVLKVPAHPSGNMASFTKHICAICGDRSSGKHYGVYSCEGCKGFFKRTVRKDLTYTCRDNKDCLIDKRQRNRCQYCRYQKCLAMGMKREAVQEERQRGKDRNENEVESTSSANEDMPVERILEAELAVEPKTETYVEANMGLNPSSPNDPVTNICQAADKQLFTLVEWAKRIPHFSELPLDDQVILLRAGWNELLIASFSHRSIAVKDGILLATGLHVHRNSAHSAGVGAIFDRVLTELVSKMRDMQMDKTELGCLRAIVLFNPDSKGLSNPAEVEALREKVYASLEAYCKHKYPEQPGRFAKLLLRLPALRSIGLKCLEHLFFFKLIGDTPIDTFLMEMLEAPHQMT

Binder	binding signal
NRC3_wobSeed69_DR2_A7C_o1 (dsDNA) DNA 1: GCAGTCCAAGTTCACTAGGTAACGTAAGATTCAGCTGCGATTGACAGCGTAGAATGAAGG DNA 2: CCTTCATTCTACGCTGTCAATCGCAGCTGAATCTTACGTTACCTAGTGAACTTGGACTGC	3.03 PBM z-score against 500 random probes
NRC3_wobSeed69_DR2_A8T_o1 (dsDNA) DNA 1: GCAGTCATAGTTCACTAGGTAACGTAAGATTCAGCTGCGATTGACAGCGTAGAATGAAGG DNA 2: CCTTCATTCTACGCTGTCAATCGCAGCTGAATCTTACGTTACCTAGTGAACTATGACTGC	3.02 PBM z-score against 500 random probes
NRC3_wobSeed124_DR5_T5G_o1 (dsDNA) DNA 1: GCCCGACTGGGCCATTCAGAGGTCATTGATCATATGGCGATTGACAGCGTAGAATGAAGG DNA 2: CCTTCATTCTACGCTGTCAATCGCCATATGATCAATGACCTCTGAATGGCCCAGTCGGGC	3.03 PBM z-score against 500 random probes
NRC3_wobSeed90_DR3_A8C_o1 (dsDNA) DNA 1: GCCATACCGGGTCAGCTAGGCCAGAGTAGGGACGGCGCGATTGACAGCGTAGAATGAAGG DNA 2: CCTTCATTCTACGCTGTCAATCGCGCCGTCCCTACTCTGGCCTAGCTGACCCGGTATGGC	3.04 PBM z-score against 500 random probes
NRC3_wobSeed4_DR0_A24C_o1 (dsDNA) DNA 1: GCCCTACTGGGCCAAGGTCATTGCTCAGTCAAAGCAGCGATTGACAGCGTAGAATGAAGG DNA 2: CCTTCATTCTACGCTGTCAATCGCTGCTTTGACTGAGCAATGACCTTGGCCCAGTAGGGC	3.07 PBM z-score against 500 random probes
NRC3_wobSeed4_DR0_C13G_o1 (dsDNA) DNA 1: GCCCTACTGGGCGAAGGTCATTGATCAGTCAAAGCAGCGATTGACAGCGTAGAATGAAGG DNA 2: CCTTCATTCTACGCTGTCAATCGCTGCTTTGACTGATCAATGACCTTCGCCCAGTAGGGC	3.03 PBM z-score against 500 random probes
NRC3_wobSeed86_DR3_T17A_o1 (dsDNA) DNA 1: GCGCTGCTAGGTCAGGATGGTCAGCTAACGGGTACGGCGATTGACAGCGTAGAATGAAGG DNA 2: CCTTCATTCTACGCTGTCAATCGCCGTACCCGTTAGCTGACCATCCTGACCTAGCAGCGC	3.06 PBM z-score against 500 random probes
NRC3_wobSeed86_DR3_G24A_o1 (dsDNA) DNA 1: GCGCTGCTAGGTCAGGTTGGTCAACTAACGGGTACGGCGATTGACAGCGTAGAATGAAGG DNA 2: CCTTCATTCTACGCTGTCAATCGCCGTACCCGTTAGTTGACCAACCTGACCTAGCAGCGC	3.06 PBM z-score against 500 random probes
NRC3_wobSeed86_DR3_A23G_o1 (dsDNA) DNA 1: GCGCTGCTAGGTCAGGTTGGTCGGCTAACGGGTACGGCGATTGACAGCGTAGAATGAAGG DNA 2: CCTTCATTCTACGCTGTCAATCGCCGTACCCGTTAGCCGACCAACCTGACCTAGCAGCGC	3.01 PBM z-score against 500 random probes
NRC3_wobSeed86_DR3_A23T_o1 (dsDNA) DNA 1: GCGCTGCTAGGTCAGGTTGGTCTGCTAACGGGTACGGCGATTGACAGCGTAGAATGAAGG DNA 2: CCTTCATTCTACGCTGTCAATCGCCGTACCCGTTAGCAGACCAACCTGACCTAGCAGCGC	3.05 PBM z-score against 500 random probes
NRC3_wobSeed106_DR4_T28A_o1 (dsDNA) DNA 1: GCCTCGAAAGGTCGGTTGAGGTGAGTAAACGGATAAGCGATTGACAGCGTAGAATGAAGG DNA 2: CCTTCATTCTACGCTGTCAATCGCTTATCCGTTTACTCACCTCAACCGACCTTTCGAGGC	3.1 PBM z-score against 500 random probes
NRC3_wobSeed106_DR4_G25C_o1 (dsDNA) DNA 1: GCCTCGAAAGGTCGGTTGAGGTGACTATACGGATAAGCGATTGACAGCGTAGAATGAAGG DNA 2: CCTTCATTCTACGCTGTCAATCGCTTATCCGTATAGTCACCTCAACCGACCTTTCGAGGC	3.02 PBM z-score against 500 random probes
NRC3_wobSeed46_DR1_A5T_o1 (dsDNA) DNA 1: GCTTTCCAAGGTGAAAGGTCGTTGATGCACGCCTTGGCGATTGACAGCGTAGAATGAAGG DNA 2: CCTTCATTCTACGCTGTCAATCGCCAAGGCGTGCATCAACGACCTTTCACCTTGGAAAGC	3.06 PBM z-score against 500 random probes
NRC3_wobSeed46_DR1_T26A_o1 (dsDNA) DNA 1: GCTTACCAAGGTGAAAGGTCGTTGAAGCACGCCTTGGCGATTGACAGCGTAGAATGAAGG DNA 2: CCTTCATTCTACGCTGTCAATCGCCAAGGCGTGCTTCAACGACCTTTCACCTTGGTAAGC	3.02 PBM z-score against 500 random probes
NRC3_wobSeed46_DR1_T26G_o1 (dsDNA) DNA 1: GCTTACCAAGGTGAAAGGTCGTTGAGGCACGCCTTGGCGATTGACAGCGTAGAATGAAGG DNA 2: CCTTCATTCTACGCTGTCAATCGCCAAGGCGTGCCTCAACGACCTTTCACCTTGGTAAGC	3.01 PBM z-score against 500 random probes
NRC3_wobSeed46_DR1_C7G_o1 (dsDNA) DNA 1: GCTTACGAAGGTGAAAGGTCGTTGATGCACGCCTTGGCGATTGACAGCGTAGAATGAAGG DNA 2: CCTTCATTCTACGCTGTCAATCGCCAAGGCGTGCATCAACGACCTTTCACCTTCGTAAGC	3.05 PBM z-score against 500 random probes
NRC3_wobSeed9_DR0_T22C_o1 (dsDNA) DNA 1: GCATCTCTAGGTAAAGTTCAGCGAAAGATCGATAGAGCGATTGACAGCGTAGAATGAAGG DNA 2: CCTTCATTCTACGCTGTCAATCGCTCTATCGATCTTTCGCTGAACTTTACCTAGAGATGC	3.07 PBM z-score against 500 random probes

Binder	binding signal
NRC3_wobSeed111_DR4_G25T_o1 (dsDNA) DNA 1: GCCGAACTAGGTCAGAACAGGACATTGAAGGATGATGCGATTGACAGCGTAGAATGAAGG DNA 2: CCTTCATTCTACGCTGTCAATCGCATCATCCTTCAATGTCCTGTTCTGACCTAGTTCGGC	3.08 PBM z-score against 500 random probes
NRC3_wobSeed111_DR4_G27T_o1 (dsDNA) DNA 1: GCCGAACTAGGTCAGAACAGGACAGTTAAGGATGATGCGATTGACAGCGTAGAATGAAGG DNA 2: CCTTCATTCTACGCTGTCAATCGCATCATCCTTAACTGTCCTGTTCTGACCTAGTTCGGC	3.03 PBM z-score against 500 random probes
NRC3_wobSeed112_DR4_A27C_o1 (dsDNA) DNA 1: GCTAGCCTAGGTCAGATCGGGCCAGTCTACGCTATAGCGATTGACAGCGTAGAATGAAGG DNA 2: CCTTCATTCTACGCTGTCAATCGCTATAGCGTAGACTGGCCCGATCTGACCTAGGCTAGC	3.08 PBM z-score against 500 random probes
NRC3_wobSeed112_DR4_C23G_o1 (dsDNA) DNA 1: GCTAGCCTAGGTCAGATCGGGCGAGTATACGCTATAGCGATTGACAGCGTAGAATGAAGG DNA 2: CCTTCATTCTACGCTGTCAATCGCTATAGCGTATACTCGCCCGATCTGACCTAGGCTAGC	3.08 PBM z-score against 500 random probes
NRC3_wobSeed65_DR2_T8A_o1 (dsDNA) DNA 1: GCATATGAAGGTTATCGGGTCATTCAGTTTGCGCATGCGATTGACAGCGTAGAATGAAGG DNA 2: CCTTCATTCTACGCTGTCAATCGCATGCGCAAACTGAATGACCCGATAACCTTCATATGC	3.08 PBM z-score against 500 random probes
NRC3_wobSeed41_DR1_G11C_o1 (dsDNA) DNA 1: GCATATGTAGCTTAAGGGTCATTCAGGTTGGTTCGCGCGATTGACAGCGTAGAATGAAGG DNA 2: CCTTCATTCTACGCTGTCAATCGCGCGAACCAACCTGAATGACCCTTAAGCTACATATGC	3.04 PBM z-score against 500 random probes
NRC3_wobSeed72_DR2_G5A_o1 (dsDNA) DNA 1: GCTCAAGTAGGTTACGGGGGCATTCAGGGATGAAGAGCGATTGACAGCGTAGAATGAAGG DNA 2: CCTTCATTCTACGCTGTCAATCGCTCTTCATCCCTGAATGCCCCCGTAACCTACTTGAGC	3.05 PBM z-score against 500 random probes
NRC3_wobSeed62_DR2_T20G_o1 (dsDNA) DNA 1: GCTCTGCTAGGTCAGTTGGGCAGCTAACGAGCTGCCGCGATTGACAGCGTAGAATGAAGG DNA 2: CCTTCATTCTACGCTGTCAATCGCGGCAGCTCGTTAGCTGCCCAACTGACCTAGCAGAGC	3.09 PBM z-score against 500 random probes
NRC3_wobSeed89_DR3_T13A_o1 (dsDNA) DNA 1: GCCTATGTAGGTAAAGGGGGTCATTCAGTTTGAAAGGCGATTGACAGCGTAGAATGAAGG DNA 2: CCTTCATTCTACGCTGTCAATCGCCTTTCAAACTGAATGACCCCCTTTACCTACATAGGC	3.02 PBM z-score against 500 random probes
NRC3_wobSeed98_DR4_C13A_o1 (dsDNA) DNA 1: GCACTAGTTGGTAAGCTGAGGTCACACACAATTCGGGCGATTGACAGCGTAGAATGAAGG DNA 2: CCTTCATTCTACGCTGTCAATCGCCCGAATTGTGTGTGACCTCAGCTTACCAACTAGTGC	3.06 PBM z-score against 500 random probes
NRC3_wobSeed51_DR2_C4G_o1 (dsDNA) DNA 1: GCCGTCGGAGGACAGAAGGTCAGAGCTGTCCGCTTTGCGATTGACAGCGTAGAATGAAGG DNA 2: CCTTCATTCTACGCTGTCAATCGCAAAGCGGACAGCTCTGACCTTCTGTCCTCCGACGGC	3.1 PBM z-score against 500 random probes
NRC3_wobSeed51_DR2_G25T_o1 (dsDNA) DNA 1: GCCCTCGGAGGACAGAAGGTCAGATCTGTCCGCTTTGCGATTGACAGCGTAGAATGAAGG DNA 2: CCTTCATTCTACGCTGTCAATCGCAAAGCGGACAGATCTGACCTTCTGTCCTCCGAGGGC	3.07 PBM z-score against 500 random probes
NRC3_wobSeed120_DR4_A17G_o1 (dsDNA) DNA 1: GCCCGAGTAGGTTACGGGGGGGCATTCAGTGCGAATGCGATTGACAGCGTAGAATGAAGG DNA 2: CCTTCATTCTACGCTGTCAATCGCATTCGCACTGAATGCCCCCCCGTAACCTACTCGGGC	3.09 PBM z-score against 500 random probes
NRC3_wobSeed75_DR3_C6A_o1 (dsDNA) DNA 1: GCTCTAGGAGGACACGAAGGTCAGAGCTTTCCAGAGGCGATTGACAGCGTAGAATGAAGG DNA 2: CCTTCATTCTACGCTGTCAATCGCCTCTGGAAAGCTCTGACCTTCGTGTCCTCCTAGAGC	3.07 PBM z-score against 500 random probes
NRC3_wobSeed61_DR2_T12G_o1 (dsDNA) DNA 1: GCCGTCCAAGGGCAGCAGGTCAGTGAAAGCGACGTGGCGATTGACAGCGTAGAATGAAGG DNA 2: CCTTCATTCTACGCTGTCAATCGCCACGTCGCTTTCACTGACCTGCTGCCCTTGGACGGC	3.09 PBM z-score against 500 random probes
NRC3_wobSeed5_DR0_G9C_o1 (dsDNA) DNA 1: GCCCTTACCGGTCAAGGTTATAGCACGGGTGGTACGGCGATTGACAGCGTAGAATGAAGG DNA 2: CCTTCATTCTACGCTGTCAATCGCCGTACCACCCGTGCTATAACCTTGACCGGTAAGGGC	3.08 PBM z-score against 500 random probes
